Reference: the Human Domainome abundance scans (Beltran et al. 2025)
± gives the uncertainty stated by the source.

B1: Homeobox protein cut-like 1, residues 941 to 1008; numbered along this chain, P39880 (parent)
chain: QEVDTIELTRQVKEKLAKNGICQRIFGEKVLGLSQGSVSDMLSRPKPWSKLTQKGREPFIRMQLWLNG

Variants of: B1
Assay: abundance fitness (aPCA) (normalised: wild type 0, dead -1); higher = more abundant; growth selection in yeast, the domain comes from the species named
Conditions: Homo sapiens
QEVDTIELTRQVKEKLAKKGICQRIFGEKVLGLSQGSVSDMLSRPKPWSKLTQKGREPFIRMQLWLNG [N19K] showed an abundance fitness of -0.019 ± 0.08. QEVDTIELTRQVKEKLAKNGICQRIFGEKVLGLSQGSVSDMLSRLKPWSKLTQKGREPFIRMQLWLNG [P45L] gave an abundance fitness of -0.202 ± 0.048. Variant QEVDTIELTRQVKEKLAKNGICQRIFGEKVLGLSQGSVMDMLSRPKPWSKLTQKGREPFIRMQLWLNG [S39M] has an abundance fitness of 0.01 ± 0.052. For QEVDTIELTRQVKEKLGKNGICQRIFGEKVLGLSQGSVSDMLSRPKPWSKLTQKGREPFIRMQLWLNG [A17G], the abundance fitness was -0.205 ± 0.049. In the case of QEVDTIELTRQVKEKLFKNGICQRIFGEKVLGLSQGSVSDMLSRPKPWSKLTQKGREPFIRMQLWLNG [A17F], the abundance fitness is reported as -0.116 ± 0.12. With QEVDTIECTRQVKEKLAKNGICQRIFGEKVLGLSQGSVSDMLSRPKPWSKLTQKGREPFIRMQLWLNG [L8C] the abundance fitness was -0.205 ± 0.094. QEVDTIELTRQVKEKLAKNGICQRIFGEKVLGLSQGQVSDMLSRPKPWSKLTQKGREPFIRMQLWLNG [S37Q] gave an abundance fitness of 0.111 ± 0.098. QEVDTIELTRQVKEKLAKNGICQRIFGEKVLGLSQGRVSDMLSRPKPWSKLTQKGREPFIRMQLWLNG [S37R] gave an abundance fitness of -0.099 ± 0.05. QEVDTIELTRQVKEKLAKNGICQRIFGEKVLGLSQGCVSDMLSRPKPWSKLTQKGREPFIRMQLWLNG [S37C] gave an abundance fitness of 0.066 ± 0.065. Work on QEVDTIELTRQVKEKLAKNGICQRIFGEKVLGLSQGSVSDMLSRPKPWSKLTQKGREPFIRMQLRLNG [W65R] yielded an abundance fitness of -0.76 ± 0.081. Work on QEVDTIELTRQVKEKLAKNGICQRIFGEKVLGLSQGSVSDMLSRPKPWSKLTQMGREPFIRMQLWLNG [K54M] yielded an abundance fitness of -0.263 ± 0.095. QEVDTIELTRQVKEKLAKNGICQRIFGEKVLGLSQGSVSDMLSRPKDWSKLTQKGREPFIRMQLWLNG [P47D] showed an abundance fitness of -0.158 ± 0.13. For QEVDTIELTRQVKEKLAKNGICQRIFGEKVLGLSQGSVSDMLSRPKVWSKLTQKGREPFIRMQLWLNG [P47V], the abundance fitness was -0.079 ± 0.068. In the case of QEVDTIELTRLVKEKLAKNGICQRIFGEKVLGLSQGSVSDMLSRPKPWSKLTQKGREPFIRMQLWLNG [Q11L], the abundance fitness is reported as -0.125 ± 0.046. QEVDTIELTRAVKEKLAKNGICQRIFGEKVLGLSQGSVSDMLSRPKPWSKLTQKGREPFIRMQLWLNG [Q11A] gave an abundance fitness of -0.13 ± 0.067. QEVDTIELTRQVKEKLAKNGICQRIFGEKVLGLSQGSVSDMLSRPKPWSKLTQKGREPFIRSQLWLNG [M62S] gave an abundance fitness of -0.619 ± 0.068. Work on QEVDTIELTRQVKEKLAKNGICQRIFGEKVLGLSQGSVSDMLSRPKPWSKLTQKGRKPFIRMQLWLNG [E57K] yielded an abundance fitness of -0.091 ± 0.078. In the case of QEVDTIELTRQVKEKLAKNGICQRIFGEKVLGLSQGSVSDMLSRPKPWSKLTQKGRSPFIRMQLWLNG [E57S], the abundance fitness is reported as -0.192 ± 0.058. QEVDTIELTRQVKEKLAKNGICQRIFGEKLLGLSQGSVSDMLSRPKPWSKLTQKGREPFIRMQLWLNG [V30L] showed an abundance fitness of -0.416 ± 0.49. With QEVDTIELTRQVKEKLAKNGICQREFGEKVLGLSQGSVSDMLSRPKPWSKLTQKGREPFIRMQLWLNG [I25E] the abundance fitness was 0.125 ± 0.079. Variant QEVDTIELTRQVKEKLAKNGICQRHFGEKVLGLSQGSVSDMLSRPKPWSKLTQKGREPFIRMQLWLNG [I25H] has an abundance fitness of 0.073 ± 0.12. For QEVDTIELTRQVKEKLAKNGICQRDFGEKVLGLSQGSVSDMLSRPKPWSKLTQKGREPFIRMQLWLNG [I25D], the abundance fitness was 0.156 ± 0.11. For QEVDTIELTRQVKEKLAKNGICQRIFGEKVLGLSQGSVSDMLSRPKPWSKLTQKGREPFIRMQLWLNH [G68H], the abundance fitness was -0.455 ± 0.14. QEVDTIELTRQVKEKLAKNGICQRIFGEKVLGLSQGSVSDMLSRPKPWSKLTVKGREPFIRMQLWLNG [Q53V] showed an abundance fitness of -0.095 ± 0.05. For QEVDTIELTRQVKEKLAKNGICQRIFGEKVLGLSQGSVSDMLSRPKPWSKLTWKGREPFIRMQLWLNG [Q53W], the abundance fitness was -0.173 ± 0.084. Variant QEVDTIELTRQVKEKLAKNGICQRIFGEKVLGLSQGSVSDMLSRPKPWSKLTTKGREPFIRMQLWLNG [Q53T] has an abundance fitness of -0.014 ± 0.075. Variant QEVDTIELTRQVKEKLAKNGICTRIFGEKVLGLSQGSVSDMLSRPKPWSKLTQKGREPFIRMQLWLNG [Q23T] has an abundance fitness of -0.104 ± 0.076. In the case of QEVDTIELTRQVKEKLAKNGICCRIFGEKVLGLSQGSVSDMLSRPKPWSKLTQKGREPFIRMQLWLNG [Q23C], the abundance fitness is reported as -0.281 ± 0.17. QEVDTIELTRQVKEKLAKNGICFRIFGEKVLGLSQGSVSDMLSRPKPWSKLTQKGREPFIRMQLWLNG [Q23F] gave an abundance fitness of -0.265 ± 0.087. Work on QEVDTIELTRQVKEKLAKNGICQRIFGEKVLGLSQGSVSDELSRPKPWSKLTQKGREPFIRMQLWLNG [M41E] yielded an abundance fitness of -0.335 ± 0.07. Work on QEVDTIELTRQVKEKLAKNGICQRIFGEKVLGLSQGSVSDSLSRPKPWSKLTQKGREPFIRMQLWLNG [M41S] yielded an abundance fitness of -0.263 ± 0.062. For QEVDTIELYRQVKEKLAKNGICQRIFGEKVLGLSQGSVSDMLSRPKPWSKLTQKGREPFIRMQLWLNG [T9Y], the abundance fitness was -0.577 ± 0.13. QEVDTIELMRQVKEKLAKNGICQRIFGEKVLGLSQGSVSDMLSRPKPWSKLTQKGREPFIRMQLWLNG [T9M] showed an abundance fitness of -0.384 ± 0.069. With QEVDTIELTRQVKEKLAKNGICQRIFYEKVLGLSQGSVSDMLSRPKPWSKLTQKGREPFIRMQLWLNG [G27Y] the abundance fitness was -0.144 ± 0.11. In the case of QEVDTIELTRQVKEKLAKNGICQRIFLEKVLGLSQGSVSDMLSRPKPWSKLTQKGREPFIRMQLWLNG [G27L], the abundance fitness is reported as -0.12 ± 0.056. Work on QEVDTIELTRQVKEKLAKNGICQRIFVEKVLGLSQGSVSDMLSRPKPWSKLTQKGREPFIRMQLWLNG [G27V] yielded an abundance fitness of -0.231 ± 0.047. In the case of QEVDTIELTRQVKEKLAKNGICQRIFGEKVLGLSQGSVSDMLSRPKPWHKLTQKGREPFIRMQLWLNG [S49H], the abundance fitness is reported as 0.025 ± 0.12. QEVDTIELTRQVKEKLAKNGICQRIFGEKVLGLSQGSVSDMLSRPKPWIKLTQKGREPFIRMQLWLNG [S49I] gave an abundance fitness of -0.43 ± 0.086. For QEVDTIELTRQVKEKLAKNGICQRIFGEKVLGLSVGSVSDMLSRPKPWSKLTQKGREPFIRMQLWLNG [Q35V], the abundance fitness was 0 ± 0.049. Variant QEVDTIELTRQVKEKLAKNGICQRIFGEKVLGLSQGSGSDMLSRPKPWSKLTQKGREPFIRMQLWLNG [V38G] has an abundance fitness of -0.263 ± 0.05.
